According to paper PMC10992250, “Enzymatic synthesis of high-titer nicotinamide mononucleotide with a new nicotinamide riboside kinase and an efficient ATP regeneration system” (Bioresources and Bioprocessing, 2022):

Key:
[1] = tested on: T1, NC(=O)c1ccc[n+]([C@@H]2O[C@H](CO)[C@@H](O)[C@H]2O)c1; assay: purified protein; assay type: biochemical, Kluyveromyces marxianus; conditions: apparent, 0.5 mM ATP, 12 mM MgCl2, 50 mM Tris-HCl pH 7.5, 50 mM NaCl, 50 mM KCl, 0.01% BSA, 30 °C
T1 construct: codon-optimised gene in pET21a (NdeI/XhoI, no stop codon; C-terminal vector His tag), E. coli BL21(DE3), Ni column; about 27 kDa

[2] = tested on: T2, Nc1ncnc2c1ncn2[C@@H]1O[C@H](COP(=O)(O)OP(=O)(O)OP(=O)(O)O)[C@@H](O)[C@H]1O; assay: purified protein; assay type: biochemical, Kluyveromyces marxianus; conditions: apparent, 0.5 mM NR, 12 mM MgCl2, 50 mM Tris-HCl pH 7.5, 50 mM NaCl, 50 mM KCl, 0.01% BSA, 30 °C
T2 construct: codon-optimised gene in pET21a (NdeI/XhoI, no stop codon; C-terminal vector His tag), E. coli BL21(DE3), Ni column; about 27 kDa

Gbst-AcK = molecular target: T3, Gbst-AcK (Geobacillus stearothermophilus, UniProt A0ACH1E729); assay: HPLC of ATP formation; assay type: biochemical; conditions: […] ADP, […] AcP, […] MgCl2, […] KPB pH […] °C
T3 construct: gene ackA; codon-optimised gene in pET21a (NdeI/XhoI, no stop codon; C-terminal vector His tag), E. coli BL21(DE3), Ni column
T3 sequence (A0ACH1E729 1-396): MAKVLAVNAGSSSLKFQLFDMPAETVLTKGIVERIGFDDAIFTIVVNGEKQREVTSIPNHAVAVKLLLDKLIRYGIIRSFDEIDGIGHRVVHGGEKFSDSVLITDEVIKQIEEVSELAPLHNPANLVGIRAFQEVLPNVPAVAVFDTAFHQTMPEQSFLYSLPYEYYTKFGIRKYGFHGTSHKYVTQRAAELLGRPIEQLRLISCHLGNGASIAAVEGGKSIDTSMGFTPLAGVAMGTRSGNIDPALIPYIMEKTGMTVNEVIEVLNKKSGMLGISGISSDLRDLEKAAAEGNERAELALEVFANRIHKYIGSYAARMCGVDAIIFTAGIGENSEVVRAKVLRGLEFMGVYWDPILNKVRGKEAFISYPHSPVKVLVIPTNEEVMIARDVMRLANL

Row | Compound | Km [1] [µM] | Km [2] [µM] | HPLC of ATP formation (Gbst-AcK)
1 | Klm-NRK (Kluyveromyces marxianus DMKU3-1042) | 45 ± 11 | 70 ± 6 | –
2 | CC(=O)OP(=O)(O)O [AcP] | – | – | assayed as the generation of ATP from ADP with a sufficient amount of AcP
3 | Nc1ncnc2c1ncn2[C@@H]1O[C@H](COP(=O)(O)OP(=O)(O)O)[C@@H](O)[C@H]1O [ADP] | – | – | assayed as the generation of ATP from ADP with a sufficient amount of AcP
